Experimental data published in patent publication US20240262901A1 (published 2024).

Experiments:
human RGMa = target: T1, human RGMa (human, UniProt Q96B86 48-422, limits assumed, biotinylated in the indirect ELISA); experiment: BIAcore; Ab captured via anti-hIgG Fc, antigen injected
T1 construct: also called hRGMa; biotin hRGMa
T1 sequence: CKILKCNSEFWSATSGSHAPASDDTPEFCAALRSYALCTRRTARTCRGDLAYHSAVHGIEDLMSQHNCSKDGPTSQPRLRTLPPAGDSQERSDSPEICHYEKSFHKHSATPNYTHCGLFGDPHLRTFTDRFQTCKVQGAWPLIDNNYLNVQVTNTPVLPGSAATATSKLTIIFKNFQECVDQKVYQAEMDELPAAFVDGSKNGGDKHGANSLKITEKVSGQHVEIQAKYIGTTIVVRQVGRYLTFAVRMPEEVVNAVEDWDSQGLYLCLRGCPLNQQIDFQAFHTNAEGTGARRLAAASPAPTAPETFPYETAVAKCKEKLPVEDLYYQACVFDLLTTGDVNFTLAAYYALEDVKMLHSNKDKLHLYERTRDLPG
Description: (§1) The potency data correlates with the affinity data (see Table 5). The affinity of h5F9.23 affinity matured Abs towards human RGMa, rat RGMa, and human RGMc were determined by BIAcore analysis (Table 5). Testing Abs were captured to the surface of a CM5 chip via anti-hIgG Fc Ab, and serially diluted antigens were injected. Association and dissociation rates were monitored for 5 and 10 min respectively. Sensorgrams were fitted by global analysis using the BIAevaluation 4.0.1 software for a 1:1 Langmuir binding model. The equilibrium dissociation constants (KD) were calculated from kinetic rate constants (off rate kd and on rate ka): KD=kd/ka.

Rat RGMa = Rat RGMa (rat, UniProt D4A188 170-424); experiment: as above
Description: as §1

Sequence of Rat RGMa (D4A188 entry or part of it): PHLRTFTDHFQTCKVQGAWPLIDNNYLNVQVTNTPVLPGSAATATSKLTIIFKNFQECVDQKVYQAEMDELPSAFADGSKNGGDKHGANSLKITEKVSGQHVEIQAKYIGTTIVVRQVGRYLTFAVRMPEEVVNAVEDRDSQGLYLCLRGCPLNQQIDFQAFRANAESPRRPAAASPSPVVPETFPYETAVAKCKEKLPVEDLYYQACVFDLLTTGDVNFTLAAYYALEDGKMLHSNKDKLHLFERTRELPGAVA

B1: humanized antibody 5F9.23 (antibody, V domains shown)
VH: EVQLVESGGGLVQPGGSLRLSCAASGFTFSNYGMNWIRQAPGKGLEWIGMIYYDSSEKHYADSVKGRFTISRDNSKNTLYLQMNSLRAEDTAVYYCAKGTTPDYWGQGTMVTVSS
VL: DVVLTQSPLSLPVTLGQPASISCRSSQSLEYSDGYTFLEWFQQRPGQSPRLLIYEVSNRFSGVPDRFSGSGSGTDFTLKISRVEAEDVGVYYCFQATHDPLTFGQGTKLEIKR
notes: also called h5F9.23; H5F9.23
Human RGMa
  kon: 6e+06 M⁻¹ s⁻¹
Rat RGMa
  Kd: 2.1 nM
  koff: 0.0017 s⁻¹
  kon: 830000 M⁻¹ s⁻¹
